B1: Lb. brevis GadA (WT) (Levilactobacillus brevis ATCC 367) (protein)
chain: MNKNDQETQQMINNVDLEKTFLGSVEAGQSLPTNTLPDDPMAPDVAAQLVEHYRLNEAKANQNLATFCTTQMEPQADELMKNALNTNAIDKSEYPKTAAMENYCVSMIAHLWGIPDNEKIYDDFIGTSTVGSSEGCMLGGLALLHSWKHRAKAAGFDIEDLHSHKPNLVIMSGYQVVWEKFCTYWNVEMRQVPINGDQVSLDMDHVMDYVDENTIGIIGIEGITYTGSVDDIQTLDNLVTEYNKTATMPVRIHVDAAFGGLFAPFVDGFNPWDFRLKNVVSINVSGHKYGMVYPGLGWIVWRHNTADILPAEMRFQVPYLGKTVDSIAINFSHSGAHISAQYYNFIRFGLSGYKTIMQNVRKVSLKLTAALKTYGIFDILVDGSQLPINCWKLADDAPVGWTLYDLESELAKYGWQVPAYPLPKNRDDVTISRIVVRPSMTMTIADDFLDDLKLAIDGLNHTFGVTTTVDQDNKTTVRS
notes: recombinant in E. coli from pRSETA-SUMO with N-terminal His-SUMO tag (tag removal told only in supplement); native N-terminus MNKNDQET (from primer); tetramer per cited work
B2: Lb. plantarum GadB (Lactiplantibacillus plantarum WCFS1) (protein)
chain: MAMLYGKHNHEAEEYLEPVFGAPSEQHDLPKYRLPKHSLSPREADRLVRDELLDEGNSRLNLATFCQTYMEPEAVELMKDTLAKNAIDKSEYPRTAEIENRCVNIIANLWHAPDDEHFTGTSTIGSSEACMLGGLAMKFAWRKRAQAAGLDLNAHRPNLVISAGYQVCWEKFCVYWDVDMHVVPMDEQHMALDVNHVLDYVDEYTIGIVGIMGITYTGQYDDLAALDKVVTHYNHQHPKLPVYIHVDAASGGFYTPFIEPQLIWDFRLANVVSINASGHKYGLVYPGVGWVVWRDRQFLPPELVFKVSYLGGELPTMAINFSHSAAQLIGQYYNFIRFGMDGYREIQTKTHDVARYLAAALDKVGEFKMINNGHQLPLICYQLASREDREWTLYDLSDRLLMNGWQVPTYPLPANLEQQVIQRIVVRADFGMNMAHDFMDDLTKAVHDLNHAHIVYHHDAAPKKYGFTH
notes: recombinant in E. coli from pET-28a(+), +GSHM at N-terminus (left after tag cleavage, details in supplement); start MAMLYGKH (from primer); about 54 kDa from kcat/Vmax; dimer per cited work

How the values were obtained:
[1] = substrate: N[C@@H](CCC(=O)O)C(=O)O; test: glutamate decarboxylation assay, Michaelis-Menten fit; type: biochemical, Levilactobacillus brevis; conditions: pH 4.8, 45 °C, sulfate buffer (0.8 M sodium sulfate, 50 mM sodium acetate), PLP, glutamate 0.9-36 mM
Text: glutamate decarboxylation assay, Michaelis-Menten fit on Lb. brevis GadA (WT)

[2] = substrate: N[C@@H](CCC(=O)O)C(=O)O; test: as above; type: biochemical, Lactiplantibacillus plantarum; conditions: pH 4.8, 60 °C, McIlvaine (citrate-phosphate) buffer, PLP, glutamate 0.9-36 mM
Text: glutamate decarboxylation assay, Michaelis-Menten fit on Lb. plantarum GadB

Protein	Km [1] [mM]	Vmax [1] [µmol/min/mg]	kcat [1] [s⁻¹]	kcat/Km [1] [M⁻¹ s⁻¹]	Km [2] [mM]	Vmax [2] [µmol/min/mg]	kcat [2] [s⁻¹]	kcat/Km [2] [M⁻¹ s⁻¹]
B1	26.95 ± 2.437	9.16	8.17 ± 0.405	303				
B2					20.02 ± 2.557	73.3	65.9 ± 4.2	3290

Reference: article PMC5306213, “Common Distribution of gad Operon in Lactobacillus brevis and its GadA Contributes to Efficient GABA Synthesis toward Cytosolic Near-Neutral pH” (Frontiers in Microbiology, 2017)
